Starred links: 1 amine or outer side, 2 acyl side, 3 side chain; linkers in the order of their positions; H or OH if unused. Non-standard residues stand in square brackets, D forms with d. Groups on a side chain read outwards from the residue. No end group written: not given here. *: point of attachment. C20 diacid = O=C(O)CCCCCCCCCCCCCCCCCCC(=O)*; γGlu = O=C(O)[C@H](CCC(=O)[*:2])N[*:1]; αMeF = C[C@](N)(Cc1ccccc1)C(=O)O; 4Pal = N[C@@H](Cc1ccncc1)C(=O)O; αMeL = CC(C)C[C@](C)(N)C(=O)O; Orn = NCCC[C@H](N)C(=O)O; AEEA = NCCOCCOCC(=O)O; Aib = CC(C)(N)C(=O)O

One test has as its target T1, human glucagon receptor (human, UniProt P47871 26-477).
T1 construct: whole, on cells; Assayed as crude membranes of stably transfected HEK293 cells; also called hGcgR; GcgR
The test can be described thus: SPA, displacement of [125I]-Gcg from hGcgR membranes, 0.1% bacitracin. In outline:
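Binding buffer: 25 mM HEPES pH 7.4, 2.5 mM CaCl₂, 1 mM MgCl₂, 0.003% Tween-20, protease inhibitors without EDTA. Counted by scintillation after 12 h incubation/settling at room temperature. Four-parameter nonlinear fit; Kᵢ given as geometric mean ± SEM of independent replicates run on different days.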
Background: In a radioligand displacement assay an active substance lowers the binding of a labelled ligand.

The next test deals with T2, human GLP-1 receptor (human, UniProt P43220 24-463).
T2 construct: whole, on cells; Assayed as crude membranes of stably transfected HEK293 cells; also called hGLP1R; hGLP-1R
In words: SPA, displacement of [125I]-GLP-1 from hGLP-1R membranes, 0.1% bacitracin. In outline: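 Binding buffer: 25 mM HEPES pH 7.4, 2.5 mM CaCl₂, 1 mM MgCl₂, 0.1% bacitracin, 0.003% Tween-20, protease inhibitors without EDTA. Four-parameter nonlinear regression; Kᵢ given as geometric mean ± SEM, n = independent replicates run on different days.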

For test [1], the target named is T3, human glucose-dependent insulinotropic polypeptide (GIP) receptor (human, UniProt P48546 22-466).
T3 construct: whole, on cells; Assayed as crude membranes of stably transfected CHO cells; also called hGIPR; human GIP receptor
T3 sequence (looked up): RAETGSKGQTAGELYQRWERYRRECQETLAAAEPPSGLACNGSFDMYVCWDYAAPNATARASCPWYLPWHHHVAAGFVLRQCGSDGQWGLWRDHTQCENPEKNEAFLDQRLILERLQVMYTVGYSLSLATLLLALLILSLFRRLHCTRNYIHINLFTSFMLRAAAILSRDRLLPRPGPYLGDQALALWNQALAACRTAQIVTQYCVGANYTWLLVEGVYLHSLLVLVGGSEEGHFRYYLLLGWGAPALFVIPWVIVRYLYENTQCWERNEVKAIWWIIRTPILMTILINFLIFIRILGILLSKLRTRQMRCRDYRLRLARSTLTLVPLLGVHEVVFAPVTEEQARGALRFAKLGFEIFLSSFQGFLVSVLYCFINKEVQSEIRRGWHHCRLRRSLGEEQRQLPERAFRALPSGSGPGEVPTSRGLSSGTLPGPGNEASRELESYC
The test can be described thus: SPA, displacement of [125I]-GIP from hGIPR membranes, 0.1% bacitracin.

T1 sequence (P47871 26-477): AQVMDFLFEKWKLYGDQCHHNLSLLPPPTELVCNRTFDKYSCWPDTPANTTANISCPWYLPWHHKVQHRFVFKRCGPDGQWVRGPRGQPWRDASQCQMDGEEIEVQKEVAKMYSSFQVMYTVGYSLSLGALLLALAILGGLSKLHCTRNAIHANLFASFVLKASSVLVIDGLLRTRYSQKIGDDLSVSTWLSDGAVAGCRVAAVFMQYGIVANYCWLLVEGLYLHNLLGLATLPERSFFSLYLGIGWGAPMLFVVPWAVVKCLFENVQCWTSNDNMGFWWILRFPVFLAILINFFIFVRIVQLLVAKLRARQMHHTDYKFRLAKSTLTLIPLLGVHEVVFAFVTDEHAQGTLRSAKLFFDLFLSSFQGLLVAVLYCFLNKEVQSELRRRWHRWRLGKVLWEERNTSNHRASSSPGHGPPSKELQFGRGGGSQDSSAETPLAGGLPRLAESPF

B1: Example 56 (peptide)
peptide: Y[Aib]EGTFISDYSI[αMeL]LDKK([AEEA-AEEA-γGlu-C20 diacid])HQ[Aib]D[αMeF]VE[4Pal]LLAGGPSSGAPPPS-NH2
modifications: N-terminus assumed
SMILES: CC[C@H](C)[C@H](NC(=O)[C@H](Cc1ccccc1)NC(=O)[C@@H](NC(=O)CNC(=O)[C@H](CCC(=O)O)NC(=O)C(C)(C)NC(=O)[C@@H](N)Cc1ccc(O)cc1)[C@@H](C)O)C(=O)N[C@@H](CO)C(=O)N[C@@H](CC(=O)O)C(=O)N[C@@H](Cc1ccc(O)cc1)C(=O)N[C@@H](CO)C(=O)N[C@H](C(=O)N[C@@](C)(CC(C)C)C(=O)N[C@@H](CC(C)C)C(=O)N[C@@H](CC(=O)O)C(=O)N[C@@H](CCCCN)C(=O)N[C@@H](CCCCNC(=O)COCCOCCNC(=O)COCCOCCNC(=O)CC[C@H](NC(=O)CCCCCCCCCCCCCCCCCCC(=O)O)C(=O)O)C(=O)N[C@@H](Cc1c[nH]cn1)C(=O)N[C@@H](CCC(N)=O)C(=O)NC(C)(C)C(=O)N[C@@H](CC(=O)O)C(=O)N[C@@](C)(Cc1ccccc1)C(=O)N[C@H](C(=O)N[C@@H](CCC(=O)O)C(=O)N[C@@H](Cc1ccncc1)C(=O)N[C@@H](CC(C)C)C(=O)N[C@@H](CC(C)C)C(=O)N[C@@H](C)C(=O)NCC(=O)NCC(=O)N1CCC[C@H]1C(=O)N[C@@H](CO)C(=O)N[C@@H](CO)C(=O)NCC(=O)N[C@@H](C)C(=O)N1CCC[C@H]1C(=O)N1CCC[C@H]1C(=O)N1CCC[C@H]1C(=O)N[C@@H](CO)C(N)=O)C(C)C)[C@@H](C)CC
B1: the Ki (usually a dissociation constant, usually derived from enzyme kinetics or from competition with a known ligand) with human glucagon receptor was 193 nM; in the test with human GLP-1 receptor, 530 nM; in test [1], 0.0487 nM.

B2: Example 81 (peptide)
peptide: Y[Aib]EGTFISDYSI[αMeL]LD[Orn]K([AEEA-AEEA-γGlu-C20 diacid])HQ[Aib]DFVE[4Pal]LLEQGPSSGAPPPS-NH2
modifications: N-terminus assumed
SMILES: CC[C@H](C)[C@H](NC(=O)[C@H](Cc1ccccc1)NC(=O)[C@@H](NC(=O)CNC(=O)[C@H](CCC(=O)O)NC(=O)C(C)(C)NC(=O)[C@@H](N)Cc1ccc(O)cc1)[C@@H](C)O)C(=O)N[C@@H](CO)C(=O)N[C@@H](CC(=O)O)C(=O)N[C@@H](Cc1ccc(O)cc1)C(=O)N[C@@H](CO)C(=O)N[C@H](C(=O)N[C@@](C)(CC(C)C)C(=O)N[C@@H](CC(C)C)C(=O)N[C@@H](CC(=O)O)C(=O)N[C@@H](CCCN)C(=O)N[C@@H](CCCCNC(=O)COCCOCCNC(=O)COCCOCCNC(=O)CC[C@H](NC(=O)CCCCCCCCCCCCCCCCCCC(=O)O)C(=O)O)C(=O)N[C@@H](Cc1c[nH]cn1)C(=O)N[C@@H](CCC(N)=O)C(=O)NC(C)(C)C(=O)N[C@@H](CC(=O)O)C(=O)N[C@@H](Cc1ccccc1)C(=O)N[C@H](C(=O)N[C@@H](CCC(=O)O)C(=O)N[C@@H](Cc1ccncc1)C(=O)N[C@@H](CC(C)C)C(=O)N[C@@H](CC(C)C)C(=O)N[C@@H](CCC(=O)O)C(=O)N[C@@H](CCC(N)=O)C(=O)NCC(=O)N1CCC[C@H]1C(=O)N[C@@H](CO)C(=O)N[C@@H](CO)C(=O)NCC(=O)N[C@@H](C)C(=O)N1CCC[C@H]1C(=O)N1CCC[C@H]1C(=O)N1CCC[C@H]1C(=O)N[C@@H](CO)C(N)=O)C(C)C)[C@@H](C)CC
Consider B2, for which the results for the Ki (with human glucagon receptor; with human GLP-1 receptor; in test [1]) were 699 nM, 714 nM and 0.0374 nM, respectively.

B3: Example 82 (peptide)
peptide: Y[Aib]EGTFISDYSI[αMeL]LD[Orn]K([AEEA-AEEA-γGlu-C20 diacid])HQ[Aib]DFVE[4Pal]LLEGGPSSGAPPPS-NH2
modifications: N-terminus assumed
SMILES: CC[C@H](C)[C@H](NC(=O)[C@H](Cc1ccccc1)NC(=O)[C@@H](NC(=O)CNC(=O)[C@H](CCC(=O)O)NC(=O)C(C)(C)NC(=O)[C@@H](N)Cc1ccc(O)cc1)[C@@H](C)O)C(=O)N[C@@H](CO)C(=O)N[C@@H](CC(=O)O)C(=O)N[C@@H](Cc1ccc(O)cc1)C(=O)N[C@@H](CO)C(=O)N[C@H](C(=O)N[C@@](C)(CC(C)C)C(=O)N[C@@H](CC(C)C)C(=O)N[C@@H](CC(=O)O)C(=O)N[C@@H](CCCN)C(=O)N[C@@H](CCCCNC(=O)COCCOCCNC(=O)COCCOCCNC(=O)CC[C@H](NC(=O)CCCCCCCCCCCCCCCCCCC(=O)O)C(=O)O)C(=O)N[C@@H](Cc1c[nH]cn1)C(=O)N[C@@H](CCC(N)=O)C(=O)NC(C)(C)C(=O)N[C@@H](CC(=O)O)C(=O)N[C@@H](Cc1ccccc1)C(=O)N[C@H](C(=O)N[C@@H](CCC(=O)O)C(=O)N[C@@H](Cc1ccncc1)C(=O)N[C@@H](CC(C)C)C(=O)N[C@@H](CC(C)C)C(=O)N[C@@H](CCC(=O)O)C(=O)NCC(=O)NCC(=O)N1CCC[C@H]1C(=O)N[C@@H](CO)C(=O)N[C@@H](CO)C(=O)NCC(=O)N[C@@H](C)C(=O)N1CCC[C@H]1C(=O)N1CCC[C@H]1C(=O)N1CCC[C@H]1C(=O)N[C@@H](CO)C(N)=O)C(C)C)[C@@H](C)CC
As for B3, the results for the inhibition constant Ki (in the test with human glucagon receptor; in the test with human GLP-1 receptor; in test [1]) were 305 nM, 388 nM and 0.0617 nM, respectively.

B4: Example 76 (peptide)
peptide: YXEGTXISDYSIXLDXKHQXDFVEXLLEGGPSSGAPPPS
modifications: Aib2; Iva6; αMeL13; Orn16; K17((2-[2-(2-Amino-ethoxy)-ethoxy]-acetyl)2-(γ-Glu)-CO-(CH2)18-CO2H); Aib20; 4-Pal25; C-terminal amide
For the molecule B4, the Ki with human glucagon receptor was found to be 358 nM; in the test with human GLP-1 receptor it was 263 nM; in test [1], 0.0293 nM.

B5: Example 73 (peptide)
peptide: Y[Aib]EGTLISDYSI[αMeL]LDKK([AEEA-AEEA-γGlu-C20 diacid])HQ[Aib]EFVEYLLEGGPSSGAPPPS-NH2
modifications: N-terminus assumed
SMILES: CC[C@H](C)[C@H](NC(=O)[C@H](CC(C)C)NC(=O)[C@@H](NC(=O)CNC(=O)[C@H](CCC(=O)O)NC(=O)C(C)(C)NC(=O)[C@@H](N)Cc1ccc(O)cc1)[C@@H](C)O)C(=O)N[C@@H](CO)C(=O)N[C@@H](CC(=O)O)C(=O)N[C@@H](Cc1ccc(O)cc1)C(=O)N[C@@H](CO)C(=O)N[C@H](C(=O)N[C@@](C)(CC(C)C)C(=O)N[C@@H](CC(C)C)C(=O)N[C@@H](CC(=O)O)C(=O)N[C@@H](CCCCN)C(=O)N[C@@H](CCCCNC(=O)COCCOCCNC(=O)COCCOCCNC(=O)CC[C@H](NC(=O)CCCCCCCCCCCCCCCCCCC(=O)O)C(=O)O)C(=O)N[C@@H](Cc1c[nH]cn1)C(=O)N[C@@H](CCC(N)=O)C(=O)NC(C)(C)C(=O)N[C@@H](CCC(=O)O)C(=O)N[C@@H](Cc1ccccc1)C(=O)N[C@H](C(=O)N[C@@H](CCC(=O)O)C(=O)N[C@@H](Cc1ccc(O)cc1)C(=O)N[C@@H](CC(C)C)C(=O)N[C@@H](CC(C)C)C(=O)N[C@@H](CCC(=O)O)C(=O)NCC(=O)NCC(=O)N1CCC[C@H]1C(=O)N[C@@H](CO)C(=O)N[C@@H](CO)C(=O)NCC(=O)N[C@@H](C)C(=O)N1CCC[C@H]1C(=O)N1CCC[C@H]1C(=O)N1CCC[C@H]1C(=O)N[C@@H](CO)C(N)=O)C(C)C)[C@@H](C)CC
As for B5, the Ki stood at 292 nM in the test with human glucagon receptor, 117 nM with human GLP-1 receptor and 0.036 nM in test [1].

These data come from patent publication US20210032299A1 (Eli Lilly, published 2021).
